Patent publication US20040253236A1

B1: convulxin (Cvx), purified from the venom of Crotalus durissus terrificus (ligand)
chain 1: GLHCPSDWYYYDQHCYRIFNEEMNWEDAEWFCTKQAKGAHLVSIKSAKEADFVAWMVTQNIEESFSHVSIGLRVQNKEKQCSTKWSDGSSVSYDNLLDLYITKCSLLKKETGFRKWFVASCIGKIPFVCKFPPQC
chain 2: GFCCPSHWSSYDRYCYKVFKQEMTWADAEKFCTQQHTGSHLVSFHSTEEVDFVVKMTHQSLKSTFFWIGANNIWNKCNWQWSDGTKPEYKEWHEEFECLISRTFDNQWLSAPCSDTYSFVCKFEA

Tests used:
collagen type I = test: cell-based or functional assay
[1] = target: baboon platelet GPVI (baboon); test: flow cytometry, washed baboon platelets (positive control)

Row | Molecule | concentration of rhusGPVI:Fc needed to inhibit collagen-induced versus Cvx-induced platelet activation (collagen type I) | Baboon fluorescence intensity [1] | Baboon platelets % positive [1]
1 | recombinant human soluble GPVI:Fc (rhusGPVI:Fc) (from UniProt Q9HCN6 21-269) (Fc fusion) | 10 fold |  | 
2 | B1 |  | 72 | 95%
